Biological target: endogenous tau of wild-type mouse primary cortical neurons, P10637
Sequence (P10637 other isoform, or with tags, fused parts or gaps): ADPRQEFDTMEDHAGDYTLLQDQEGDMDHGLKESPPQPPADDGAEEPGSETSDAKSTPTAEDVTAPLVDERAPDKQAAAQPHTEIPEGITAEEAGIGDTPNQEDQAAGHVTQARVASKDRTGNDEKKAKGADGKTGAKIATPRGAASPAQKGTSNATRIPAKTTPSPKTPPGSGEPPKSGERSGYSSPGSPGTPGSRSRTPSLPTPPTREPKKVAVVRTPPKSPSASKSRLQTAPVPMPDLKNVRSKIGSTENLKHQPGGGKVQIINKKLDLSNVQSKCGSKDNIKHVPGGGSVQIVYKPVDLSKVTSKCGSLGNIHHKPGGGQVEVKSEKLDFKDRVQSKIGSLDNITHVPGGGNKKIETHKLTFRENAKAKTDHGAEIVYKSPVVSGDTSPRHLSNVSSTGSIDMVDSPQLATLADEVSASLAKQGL

B1: caspase 3 (activated, cleaved caspase 3) of mouse primary cortical neurons (protein)
chain: SGIYLDSSYKMDYPEMGICIIINNKNFHKSTGMSSRSGTDVDAANLRETFMGLKYQVRNKNDLTREDILELMDSVSKEDHSKRSSFVCVILSHGDEGVIYGTNGPVELKKLTSFFRGDYCRSLTGKPKLFIIQACRGTELDCGIETDSGTDEEMACQKIPVEADFLYAYSTAPGYYSWRNSKDGSWFIQSLCSMLKLYAHKLEFMHILTRVNRKVATEFESFSLDSTFHAKKQIPCIVSMLTKELYFYH
  tau cleaved at Asp421 (TauC3 western blot, TauC3 to total tau): did result in increased cleavage of tau as measured by TauC3 western blot

Source: patent US20160333063
